# Measurements: patent US20100310509A1 (published 2010)
# T1: soluble gp130 (R&D Systems # 228-GP-050/CF) (UniProt P40189 23-619, limits assumed)
# T1 construct: extracellular domain; Bought
# T1 sequence (looked up): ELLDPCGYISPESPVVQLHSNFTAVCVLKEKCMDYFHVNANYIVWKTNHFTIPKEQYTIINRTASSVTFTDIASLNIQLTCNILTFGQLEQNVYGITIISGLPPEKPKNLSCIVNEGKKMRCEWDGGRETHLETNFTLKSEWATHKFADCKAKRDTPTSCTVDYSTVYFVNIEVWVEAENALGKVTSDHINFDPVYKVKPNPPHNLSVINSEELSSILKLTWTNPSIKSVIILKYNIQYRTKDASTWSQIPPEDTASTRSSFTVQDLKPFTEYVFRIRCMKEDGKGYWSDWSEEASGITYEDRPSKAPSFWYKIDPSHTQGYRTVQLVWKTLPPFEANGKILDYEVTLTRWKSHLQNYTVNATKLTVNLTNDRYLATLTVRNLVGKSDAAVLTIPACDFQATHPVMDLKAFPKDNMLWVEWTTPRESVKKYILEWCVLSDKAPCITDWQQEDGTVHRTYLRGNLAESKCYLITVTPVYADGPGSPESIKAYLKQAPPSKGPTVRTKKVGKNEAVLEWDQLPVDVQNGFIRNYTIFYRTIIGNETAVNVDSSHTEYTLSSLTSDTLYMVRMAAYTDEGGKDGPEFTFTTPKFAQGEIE
# T2: soluble human LIFR (leukemia inhibitory factor receptor) (human, UniProt P42702 45-833)
# T2 construct: extracellular domain; Bought; also called soluble LIFR
# T2 sequence (looked up): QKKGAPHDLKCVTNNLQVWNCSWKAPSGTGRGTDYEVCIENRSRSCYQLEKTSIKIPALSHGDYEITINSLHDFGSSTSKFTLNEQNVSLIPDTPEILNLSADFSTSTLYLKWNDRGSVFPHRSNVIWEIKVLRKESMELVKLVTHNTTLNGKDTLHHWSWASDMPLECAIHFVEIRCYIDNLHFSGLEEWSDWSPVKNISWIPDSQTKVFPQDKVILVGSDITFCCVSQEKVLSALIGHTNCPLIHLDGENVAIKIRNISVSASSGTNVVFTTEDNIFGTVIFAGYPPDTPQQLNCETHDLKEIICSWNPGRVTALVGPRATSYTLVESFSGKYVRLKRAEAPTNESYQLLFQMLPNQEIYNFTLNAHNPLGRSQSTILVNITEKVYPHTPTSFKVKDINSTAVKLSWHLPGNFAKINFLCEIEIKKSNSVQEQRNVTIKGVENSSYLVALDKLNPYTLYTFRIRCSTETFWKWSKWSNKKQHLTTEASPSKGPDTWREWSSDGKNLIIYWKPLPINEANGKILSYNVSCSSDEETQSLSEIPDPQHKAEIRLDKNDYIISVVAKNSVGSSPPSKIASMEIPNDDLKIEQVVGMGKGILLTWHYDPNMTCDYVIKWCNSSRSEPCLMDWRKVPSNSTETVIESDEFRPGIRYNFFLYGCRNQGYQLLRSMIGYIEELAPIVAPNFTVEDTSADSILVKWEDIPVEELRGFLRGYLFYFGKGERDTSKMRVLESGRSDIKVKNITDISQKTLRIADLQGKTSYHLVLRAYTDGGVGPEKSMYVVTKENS
# Columns and labels:
# [1] = target: T1, soluble gp130 (R&D Systems # …); assay: SPR, ratio of KD values
# Method: (§1) A concentration series of soluble LIFR (# 249-LR-050/CF, R&D Systems, Minneapolis, Minn.), soluble OSMR (# 4389-OR-50, R&D Systems, Minneapolis, Minn.) or soluble gp130 (# 228-GP-050/CF, R&D Systems, Minneapolis, Minn.) in running buffer (10 mM HEPES pH 7.4, 150 mM NaCl, 3.4 mM EDTA, 0.005% Tween-20) were injected over both channels at a flow rate of 25 μl/min. Following a dissociation period of 3 minutes, the surfaces were regenerated by injecting 10 mM NaOH for 30 seconds. Rate constants for association (kₐ) and dissociation (kd) rates were derived by global analysis of the response curves fit to a 1:1 kinetic model (Equations 1 and 2) using QDat software (BioLogic Software, Ltd. Knoxville Tenn. and Nomadics, Inc. Stillwater, Okla.) using 1:1 stoichiometry.
# (§2) Reducing the size of the BC loop improves OSM's affinity towards LIFR and OSMR. […] To directly measure the binding kinetics of these ligand-receptor interactions, surface plasmon resonance (SPR) was used. The cytokines (LIF, OSM-WT, OSM-M1 and OSM-M2) were immobilized on the sensor chip surface, while recombinant soluble receptors were used as the analytes (FIG. 11).
# [2] = target: T2, soluble human LIFR (leukemia inhibitory …); assay: SPR, ratio of KD values
# Method: as §1, §2
fold higher affinity than towards LIFR [1] [fold],fold higher affinity than towards gp130 [2] [fold],Binder
2,–,"OSM-WT ('AGA' modified human Oncostatin M, referred to as wild-type OSM) (ligand, also called hOSM with AGA modification; not shown: N-terminal FLAG tag left after thrombin removal of GST) AAIGSCSKEYRVLLGQLQKQTDLMQDTSRLLDPYIRIQGLDVPKLREHCRERPGAFPSEETLRGLGRRGFLQTLNATLGCVLHRLADLEQRLPKAQDLERSGLNIEDLEKLQMARPNILGLRNNIYCMAQLLDNSDTAEPTKAGAGASQPPTPTPASDAFQRKLEGCRFLHGYHRFMHSVGRVFSKWGESPN"
–,23,"human leukemia inhibitory factor (LIF) (ligand, Purified recombinant protein; also called hLIF) not shown"
